Tests used:
[1] = target: T1, NP (ΔNPNTD) NTD (Zaire ebolavirus), P18272; details: modification not given
T1 chain: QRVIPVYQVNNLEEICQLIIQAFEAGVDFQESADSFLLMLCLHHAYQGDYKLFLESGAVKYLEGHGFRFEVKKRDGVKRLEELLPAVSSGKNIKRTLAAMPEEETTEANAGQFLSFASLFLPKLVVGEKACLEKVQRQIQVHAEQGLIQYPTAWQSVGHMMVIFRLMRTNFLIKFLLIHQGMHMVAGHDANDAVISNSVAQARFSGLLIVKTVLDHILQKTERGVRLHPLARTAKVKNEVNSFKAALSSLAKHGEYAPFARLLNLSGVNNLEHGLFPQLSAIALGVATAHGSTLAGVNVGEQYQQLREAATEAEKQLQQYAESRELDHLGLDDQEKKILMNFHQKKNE

[2] = target: T1, NP (ΔNPNTD) NTD (Zaire ebolavirus), …; experiment: competition; details: modification not given

B1: VP35 NPBP 20-48, Q05127 (peptide)
chain: MPGPELSGWISEQLMTGRIPVSDIFCDIE
Q: Which Kd [1] does the source give for B1 here?
A: 32 nM

Q: And the IC50 [2]?
A: 262 nM

Reference: article PMC5735849
